Experiment [1] deals with T1, recombinant human 5T4 ECD protein fused to human Fc (human, UniProt Q13641 32-355).
T1 construct: extracellular domain; Immunogen, ELISA antigen and Octet analyte; also called 5T4-ECD-hFc; 5T4-ECD-Fc; not shown: human Fc
T1 sequence (looked up): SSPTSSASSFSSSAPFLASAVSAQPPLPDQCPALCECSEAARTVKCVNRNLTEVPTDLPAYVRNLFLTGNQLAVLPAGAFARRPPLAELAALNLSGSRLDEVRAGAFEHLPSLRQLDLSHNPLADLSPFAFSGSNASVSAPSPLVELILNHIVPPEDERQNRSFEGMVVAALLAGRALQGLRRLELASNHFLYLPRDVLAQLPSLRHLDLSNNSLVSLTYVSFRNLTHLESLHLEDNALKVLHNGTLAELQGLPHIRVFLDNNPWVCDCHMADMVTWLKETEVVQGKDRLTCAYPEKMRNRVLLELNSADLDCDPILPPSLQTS
Briefly: Octet, mAb on AMC sensor, 5T4-Fc as analyte. How it is done:
(§1) Binding Affinities by Octet Test. Briefly, mAb were analyzed by Octet RED 384 instrument, where human 5T4-ECD Fc antigen at 200 nM and 100 nM served as the analyte and the purified mAbs at 5 μg/ml served as the ligand, bound to AMC sensor (anti mouse Fc antibody) with immobilized phase of 180 s, association phase of 300 s, dissociation phase of 180 s.
(§2) FIGS. 7A-7G present the Octet data determined the KD affinities of selected mAb.

Experiment [2] deals with T1, recombinant human 5T4 ECD protein fused …. Briefly: Octet, mAb on AMC sensor, 5T4-ECD Fc as analyte. As for the experimental part:
as §1, §2
(In general: In BLI a coated tip is dipped into the sample, and binding shifts an interference pattern.)

The target of experiment [3] is T2, cyno 5T4 on CHO cells (cyno, UniProt Q4R8Y9 35-420).
T2 construct: whole, on cells; also called CHO over expressing cyno 5T4
T2 sequence (looked up): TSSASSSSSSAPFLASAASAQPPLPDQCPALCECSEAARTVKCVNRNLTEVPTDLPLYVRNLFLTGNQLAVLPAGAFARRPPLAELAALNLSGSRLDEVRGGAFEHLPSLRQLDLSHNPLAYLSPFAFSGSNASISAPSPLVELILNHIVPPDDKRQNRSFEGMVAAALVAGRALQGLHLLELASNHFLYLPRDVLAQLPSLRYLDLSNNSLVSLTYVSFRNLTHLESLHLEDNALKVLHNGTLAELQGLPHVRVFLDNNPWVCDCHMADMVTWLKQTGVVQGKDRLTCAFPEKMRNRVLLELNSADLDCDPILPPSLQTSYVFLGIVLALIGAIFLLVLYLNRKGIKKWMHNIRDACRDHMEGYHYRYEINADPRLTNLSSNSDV
Description: FACS, CHO cells over expressing cyno 5T4. A general note: In flow cytometry, cells or beads pass a laser one at a time.

The target in experiment [4] is T2, cyno 5T4 on CHO cells. Description: FACS, CHO cells over expressing cyno 5T4. The source holds these as a separate data set.
For experiment [5], the target named is T1, recombinant human 5T4 ECD protein fused …. Description: ELISA, coated 5T4 antigen. For orientation: ELISA stands for enzyme-linked immunosorbent assay.
Experiment [6] concerns the target T3, human 5T4 on cells (human, UniProt Q13641 32-420).
T3 construct: whole, on cells; also called CHO cells over expressing human 5T4; MCF-7 (endogenous 5T4)
T3 sequence (looked up): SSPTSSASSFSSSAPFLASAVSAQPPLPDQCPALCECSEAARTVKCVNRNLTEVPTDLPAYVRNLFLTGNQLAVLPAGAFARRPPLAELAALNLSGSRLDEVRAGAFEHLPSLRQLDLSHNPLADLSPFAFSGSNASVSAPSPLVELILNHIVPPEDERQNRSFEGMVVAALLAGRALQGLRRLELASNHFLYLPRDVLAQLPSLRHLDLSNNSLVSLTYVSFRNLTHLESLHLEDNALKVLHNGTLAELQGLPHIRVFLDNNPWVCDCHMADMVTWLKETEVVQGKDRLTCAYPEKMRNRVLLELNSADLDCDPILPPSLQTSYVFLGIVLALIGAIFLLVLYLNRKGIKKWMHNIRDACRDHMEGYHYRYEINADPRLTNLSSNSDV
Briefly: FACS, CHO cells over expressing human 5T4.

The target of experiment [7] is T4, h5T4-His (cat #19845-H08H, Sino Biological) (human, UniProt Q13641 32-355).
T4 construct: also called recombinant 5T4 protein; 5T4 recombinant antigen protein; not shown: His tag
T4 sequence (looked up): T1 sequence (looked up)
Description: ELISA on recombinant 5T4 protein; ELISA on recombinant 5T4 protein.

Experiment [8] has as its target T2, cyno 5T4 on CHO cells. Briefly: FACS on CHO over expressing cyno 5T4 (data not shown); FACS, CHO over expressing cyno 5T4.
In experiment [9] the target is T3, human 5T4 on cells. Description: FACS on MCF-7 cells endogenously expressing 5T4; FACS, MCF-7 endogenously expressing 5T4.
In experiment [10] the target is T3, human 5T4 on cells. Briefly: FACS on CHO over expressing human 5T4; FACS, CHO over expressing human 5T4.
Experiment [11] has as its target T2, cyno 5T4 on CHO cells. Description: FACS, CHO cells over expressing cyno 5T4. The source holds these as a separate data set.
Experiment [12] deals with T1, recombinant human 5T4 ECD protein fused …. Description: ELISA, coated 5T4 antigen. The source holds these as a separate data set.
The target is the same in experiment [13]. Briefly: ELISA, coated 5T4 antigen. The source holds these as a separate data set.
For experiment [14], the target named is T3, human 5T4 on cells. Description: FACS, CHO cells over expressing human 5T4. The source holds these as a separate data set.
Experiment [15] addresses T1, recombinant human 5T4 ECD protein fused …. Briefly: ELISA, coated 5T4 antigen. The source holds these as a separate data set.
For experiment [16] the target is unchanged. Briefly: Octet (data not shown; antigen format not stated here).

Numbering of substitutions follows the chain as printed. Where two headings read alike, the source gives them in different places.

As a reminder, the koff is the rate constant with which the complex falls apart. In general, kon refers to the second-order rate constant of association. A word on the Kd: it is the concentration at which binding is half-saturated. The term EC50 (read off the curve) denotes the concentration giving half of the maximal effect. As usually defined, the EC50 is the concentration at which the effect is half-maximal.

B1: mAb006 (antibody, V domains shown)
VH: EVQLVESGGGLVKPGGSLKLSCAASGFTFSNYVMSWVRQTPEKRLEWVATISDRGSYTYYPDYVKGRFTISRDNAKNNLYLQMSHLKSEDTAMYYCARASYYSNLGFAYWGQGTLVTVSA
VL: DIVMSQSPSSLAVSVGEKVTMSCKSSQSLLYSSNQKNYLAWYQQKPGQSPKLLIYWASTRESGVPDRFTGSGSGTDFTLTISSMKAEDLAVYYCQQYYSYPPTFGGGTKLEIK
notes: also called IM, 5T4 mouse hybridoma cl-6
Turning to B1, in experiment [1], the koff is 0.00125 s⁻¹ and the kon came out at 220000 M⁻¹ s⁻¹. Besides, the Kd in experiment [2] was determined as 5.67 nM. The binding result with cyno 5T4 on CHO cells [3] is listed as “binds”.

B2: mAb008 (antibody, V domains shown)
VH: QVQLQQSGAELMKPGASVKLACKATGYTFTAYWIEWVKQRPGHGLEWIGEILPGRGSTNSNEKFKGKATFTADTSSNTVYMQLSSLTTEDSAIFYCARGYRDFDYWGQGTTLTVSS
VL: DIVMTQSQKFMSTTVGDRVSIICKASQNVGTAVAWYQQKPGQSPKVLIYSASNRYTGVPDRFTGSGSGTDFTLTISNMQSEDLADYFCQQYTSYPRTFGGGTKLEIK
notes: also called IM, 5T4 mouse hybridoma cl-8
In the case of B2, the off-rate constant (koff) in experiment [1] was determined as 3.87e-05 s⁻¹. In addition, the on-rate constant (kon) in experiment [1] turned out to be 185000 M⁻¹ s⁻¹. The 50% effective concentration (EC50 (read off the curve)) is approximately 5 nM with cyno 5T4 on CHO cells [4], approximately 0.3 nM in experiment [5] and approximately 5 nM with human 5T4 on cells [6]. Further, the dissociation constant Kd in experiment [2] stood at 0.209 nM.

B3: mAb008-hIgG1 chimeric Ab (antibody, V domains shown)
VH: B2 VH
VL: B2 VL
notes: Mouse VH and VL of mAb008 cloned into human IgG1
With B3, the 50% effective concentration (EC50) in [7] was determined as 0.4 nM; with cyno 5T4 on CHO cells [8], 5.7 nM; in the experiment with human 5T4 on cells [9], 4.4 nM; in the experiment with human 5T4 on cells [10], 5 nM.

B4: mAb010 (antibody, V domains shown)
VH: B2 VH with Q5R, A21S, A31G, T58S, S60Y, F70L, T88I, F94Y, Y100G
VL: DIQMTQITSSLSASLGDRVTIGCSASQGINNNLNWYQQKPDGTVKLLVYYTSSLHSGVPSRFSGSGSGTDYSLTISNLEPEDIATYYCQQFIKLPYTFGGGTKLEIK
notes: also called mAb10; IM, 5T4 mouse hybridoma cl-10
Take B4: the koff in experiment [1] stood at 9.53e-05 s⁻¹. Moreover, the kon in experiment [1] was determined as 206000 M⁻¹ s⁻¹. The results for the concentration for a half-maximal effect (EC50 (read off the curve)) (in the experiment with cyno 5T4 on CHO cells [4]; in [5]; in the experiment with human 5T4 on cells [6]) were approximately 4 nM, approximately 0.3 nM and approximately 3 nM, respectively. Besides, the Kd in [2] is 0.463 nM.

B5: mAb014 (antibody, V domains shown)
VH: B2 VH with A9G, A21S, T28K, A31G, S60Y, F94Y, Y100G, Y105F, T110S
VL: B4 VL with I7T, G22S, N31S, V48I, F91Y, I92N
notes: also called IM, 5T4 mouse hybridoma cl-14
Take B5: the binding result in the experiment with cyno 5T4 on CHO cells [11] is “binds”. Besides, the “EC50 (read off the curve)” value in experiment [12] is approximately 0.2 nM.

B6: mAb003 (antibody, V domains shown)
VH: B2 VH with A21S, A31G, G56D
VL: B2 VL with T92S
notes: also called IM, 5T4 mouse hybridoma cl-3
With B6, the “EC50 (read off the curve)” value in experiment [13] was approximately 0.4 nM; with human 5T4 on cells [14] it was approximately 4 nM; with cyno 5T4 on CHO cells [3], approximately 5 nM.

B7: mAb005 (antibody, V domains shown)
VH: EVQLVESGGGLVQPKGSLQLSCAASGFTFNTYAMHWVRQAPGKGLEWVARIRSKSSNYATYYADSVKDRFTISRDDSQSMLYLQMNNLKTEDTAMYYCVRDGDYYYGSRPSYWYFDVWGTGTTVTVSS
VL: DILLTQSPAILSVSPGERVSFSCRASQSIGTNIHWYQQRTNGSPRLLIKYASESISGIPSRFSGSGSGTDFTLSINNVESEDIADYYCQQTNTWPLTFGAGTKLDLK
notes: also called IM, 5T4 mouse hybridoma cl-5
With B7, in experiment [1], the koff is 0.00024 s⁻¹ and the kon amounted to 89300 M⁻¹ s⁻¹. In addition, the Kd in experiment [2] came out at 2.69 nM.

B8: mAb016 (antibody, V domains shown)
VH: AVQLQQSGPVRVKPGASVKMSCKASGYPFTDYYMNWVKQSHGRSLDWIGVFNPYNGDTRYTQKFKDKATLTIDKSSSTAYMELNSLTSEDSAVYYCARLRLLYDTSEYYVMDYWGQGTSVTVSS
VL: ENVLTQSPAIMSASPGEKVTMTCSASSSVNYMHWYQQKSNTSPKLWIYDTSKLASGVPGRFSGSGSGNSYSLTISSMEAEDVATYFCFQGSGYPYTFGGGTKLEIK
notes: also called mAb0016; IM, 5T4 mouse hybridoma cl-16
Consider B8, for which, in experiment [1], the off-rate constant (koff) is 3.48e-05 s⁻¹ and the kon came to 150000 M⁻¹ s⁻¹. The equilibrium dissociation constant (Kd) in [2] was 0.232 nM. Besides, the “EC50 (read off the curve)” value in [15] is approximately 0.2 nM.

B9: mAb016-hIgG1 chimeric Ab (antibody, V domains shown)
VH: B8 VH
VL: B8 VL
notes: Mouse VH and VL of mAb016 cloned into human IgG1; also called mAb0016-IgG1
As for B9, the concentration for a half-maximal effect (EC50) is 0.3 nM in [7], 2.2 nM with cyno 5T4 on CHO cells [8], 0.9 nM with human 5T4 on cells [9] and 1.1 nM with human 5T4 on cells [10]. The Kd in [16] worked out at 14.7 nM.

B10: mAb018 (antibody, V domains shown)
VH: EVQLRQSGPVLVKPGASLKMSCKASGFTIADYYMTWVTQSHGQSLDWIGLINPYSGETTYNQKFKGKATLSVDKSSNTAYMDLNSLTSEDSAVYYCARWRLGYYAMDYWGRGTSVTVSS
VL: B8 VL with N30S, N40S, L45V, F86Y, S91I
notes: also called IM, 5T4 mouse hybridoma cl-18
For B10, the binding result with cyno 5T4 on CHO cells [11] is “binds”. In [1], the koff was 6.97e-05 s⁻¹ and the on-rate constant (kon) was found to be 259000 M⁻¹ s⁻¹. In addition, the dissociation constant (Kd) in [2] came to 0.269 nM. Besides, the concentration giving a half-maximal response (EC50 (read off the curve)) in [15] is approximately 0.3 nM.

Values taken from patent US20240228658A1 (IMMUNORIZON, published 2024).
